# Tests used:
# Test in all cases: cell-based or functional assay
# [1] = target: Ad3 receptor
# [2] = target: hCAR-tailless, truncation mutant of human CAR lacking the cytoplasmic domain (human) (UniProt P78310)
# [3] = target: human coxsackie-adenovirus receptor (hCAR) (human) (UniProt P78310)
substance,measurement,setting,value
mosaic adenovirus AdMSluc1 displaying both the Ad5 wild-type fiber and the Ad5/3 chimeric fiber on the same virion (from UniProt P11818 1-581; P11818 1-399; P04501 132-319),luciferase gene transfer of AdMSluc1 to C33A cells in the presence of purified Ad3 knob,[1],100 µg/mL
same,AdMSluc1 luciferase activity (normalized to Ad5/3luc1) in U118-hCAR-tailless cells against parental U118 cells,[2],7.5 fold
same,AdMSluc1 luciferase activity (normalized to Ad5/3luc1) in U118-hCAR cells against parental U118 cells,[3],6 fold
same,luciferase gene transfer of AdMSluc1 to C33A cells in the presence of purified Ad5 knob; lowest knob concentration with significant block,[3],0.1 µg/mL
recombinant Ad5 fiber knob protein with N-terminal 6xHis tag expressed in E. coli (from UniProt P11818 387-581),"luciferase activity of Ad5luc1 on HeLa cells with 100 µg/ml Ad5 knob, against that without knob protein (% of activity without knob protein)",[3],< 5
recombinant Ad3 fiber knob protein with N-terminal 6xHis tag expressed in E. coli (from UniProt P04501 119-319),"luciferase activity of Ad5/3luc1 on HeLa cells with 100 µg/ml Ad3 knob, against that without knob protein (% of activity without knob protein)",[1],< 5
"Ad5 wild-type fiber, as displayed on Ad5luc1 (from UniProt P11818 1-581)",Ad5luc1 luciferase activity (normalized to Ad5/3luc1) in U118-hCAR-tailless cells against parental U118 cells,[2],16 fold
same,Ad5luc1 luciferase activity (normalized to Ad5/3luc1) in U118-hCAR cells against parental U118 cells,[3],11 fold

# — patent US20030219899A1
